According to paper PMC3621891, “Structural Insights into Omega-Class Glutathione Transferases: A Snapshot of Enzyme Reduction and Identification of a Non-Catalytic Ligandin Site” (PLoS ONE, 2013):

Target: the molecule itself
Assay: crystal structure; hanging-drop vapour diffusion at 4°C, 2.2 M ammonium sulfate, 100 mM sodium acetate pH 4.25 and 4.75; crystals soaked with 4NPG (one also with GSH); one protomer in the asymmetric unit, dimer by crystallographic two-fold

B1: hGSTO1-1 C32A mutant (human omega-class glutathione transferase 1-1, active-site mutant) (enzyme)
chain: MSGESARSLGKGSAPPGPVPEGSIRIYSMRFAPFAERTRLVLKAKGIRHEVININLKNKPEWFFKKNPFGLVPVLENSQGQLIYESAITCEYLDEAYPGKKLLPDDPYEKACQKMILELFSKVPSLVGSFIRSQNKEDYAGLKEEFRKEFTKLEEVLTNKKTTFFGGNSISMIDYLIWPWFERLEAMKLNECVDHTPKLKLWMAAMKEDPTVSALLTSEKDWQGFLELYLQNSPEACDYGL
notes: human glutathione transferase omega 1 (hGSTO1), C32A active-site mutant; after cleavage no additional N-terminal residues; residues 4 to 241 are seen in the final model; Homodimer; the dimer is produced by two-fold crystallographic symmetry (one protomer in the asymmetric unit); Crystals held GSSG, 4NPG, DTT and sulfate; source: E. coli BL21 (DE3), purified (Ni-NTA agarose, cleavage by …)
Q: Does B1 bind?
A: binds
